From article PMC6599478 come the findings set out here.

For experiment [1], the target named is HIV-1 clade B Tier 1A chronic virus MN.3 gp120 Env (HIV-1 (clade B, MN.3)) (UniProt P05877).
The target in experiment [2] is HIV-1 MN.3 Env with the glycan mutation N332A, on pseudovirus (HIV-1 (clade B, MN.3)) (UniProt P05877).

In experiment [1], “recombinant full length Tenascin-C, large isoform (TNC-L) (from UniProt P24821 23-2201) (natural protein)” displayed an IC50 of neutralisation of wild type HIV-1 MN.3 virus, TZM-bl reporter cells of 31 µg/mL.
In the case of “recombinant full length Tenascin-C, large isoform (TNC-L), P24821 23-2201”, the IC50 of neutralisation of HIV-1 MN.3 N332A pseudovirus, TZM-bl reporter cells in experiment [2] came out at 113 µg/mL.
